Assay results as given in patent publication US12655441B2, “PPO polypeptides tolerant to PPO-inhibiting herbicides and use thereof” (QINGDAO KINGAGROOT CHEMICAL COMPOUND CO., LTD., priority 2021, dated 2026).
Residue numbers refer to the chain shown, from its start. In names and notes the source's numbering stands.

Key:
OsPPO1 = test: In vitro enzyme activity test of OsPPO1 proteins (fluorescence, substrate protoporphyrinogen); type: biochemical, rice; conditions: enzyme 500 nM, protoporphyrinogen 0.125-16 μM, excitation 410 nm, detection 630 nm
Description: Protoporphyrinogen, a substrate catalyzed by PPO, was prepared by reducing protoporphyrin with sodium amalgam. 10 mg of protoporphyrin was dissolved in 10 mL solvent, added with 20% sodium amalgam at the rate of 0.2 g/mL, reacted for 2 hours, then filtered under the protection of nitrogen in dark place. After the reaction was completed, the reaction solution should become achromatic or light brown. The reaction solution was diluted by adding with reaction buffer (100 mM Tris-HCl, 1 mM EDTA, 5 mM DTT, 0.1% Tween 20/80), and 10% hydrochloric acid was used to adjust pH to about 8.0. […]
3) The constructed fusion expression vector pET28a-MBP-OsPPO1 was transferred into E. coli BL21 (DE3), subjected to induced-expression with 0.5 mM IPTG, then purified with the Ni-NTA column, afterwards subjected to thrombin digestion, dialysed, and purified secondly by dextrin-column and Ni-column. […] The collected strains were re-suspended with the Ni-buffer A (50 mM Tris pH 8.0, 500 mM NaCl, 50 mM imidazole), homogenized by high pressure cell homogenizer, and centrifuged at 4000×g at 4° C. for 30 minutes; the supernatant was purified with the Ni column, then the purity thereof was detected by SDS-PAGE. The thrombin enzyme was added according to the quantity of proteins, dialyzed with 50 mM Tris pH 8.0, 500 mM NaCl, 1 mM DTT buffer. […]

[1] = test system: PPO-deficient Escherichia coli (ΔhemG); test: PPO-deficient E. coli (ΔhemG) transformed by rice OsPPO1 mutant genes, growth on LB medium containing herbicide; conditions: 500 nM compound A
Arabidopsis thaliana = test: Herbicide resistance test of Arabidopsis thaliana seeds overexpressing crop PPO1 WT or mutant on MS medium; type: in vivo; conditions: overexpressed in Arabidopsis thaliana seed
Description: 1) Sowing: plump and vernalized wild-type Arabidopsis thaliana seeds were selected, treated with 75% alcohol for 1 minute, disinfected with 10% NaClO for 6 minutes, and washed with sterile water for 5 to 6 times. After the sterilization was completed, the seeds were placed on a MS medium plate for one week, then transplanted to sterilized nutrient soil (nutrient soil:vermiculite=1:1) and cultured in a greenhouse at (25±2) ° C. with a photoperiod of 16 h/8 h (light/dark).
4) Infestation of Arabidopsis thaliana inflorescences: the uninfected Arabidopsis thaliana with good growth state and lush inflorescences were selected for infection and their fruit pods were cut off from the plants by scissors prior to transformation. The Arabidopsis thaliana inflorescences were dipped in the prepared infection solution for 0.5 to 1 minute. Then the infected Arabidopsis thaliana seedlings were placed in dark and humid conditions for 24 hours. After one week, the infection was repeated.
After the transformation of dipped Arabidopsis thaliana inflorescences, Arabidopsis thaliana TO-generation seeds were collected and sowed on a resistant MS plate containing 30 mg/L hygromycin to screen positive plants.
The obtained overexpressed mutant and wild-type Arabidopsis thaliana seeds of different crops were tested for resistance on a MS medium (petri dish) containing different concentrations of PPO-inhibiting herbicidal compounds, as shown in FIG. 12-23.

[2] = test system: Huaidao No. 5 rice seedlings; type: in vivo
Description: Rice seeds were peeled, washed with sterile water as many times as needed until the washing water became clear. Then the seeds were disinfected with 70% alcohol for 30 seconds and then with 5% sodium hypochlorite. The seeds were cultivated in a horizontal shaker for 20 minutes, disinfected with sodium hypochlorite and washed with sterile water for 5 times, placed on a sterile absorbent paper to air-dry the surface moisture of the seeds, and inoculated in an induction medium to cultivate the callus at 28° C. • 4) Infection of rice callus with Agrobacterium: the Huaidao No. 5 callus with a diameter of 3 mm was selected for sub-cultivation for 10 days and the callus was collected into a 50 ml centrifuge tube. […]

B1: Y425I: Amino-acid sequence of PPO1 from rice mutant (protein)
chain: MAAAAAAMATATSATAAPPLRIRDAARRTRRRGHVRCAVASGAAEAPAAPGARVSADCVVVGGGISGLCTAQALATKHGVGDVLVTEARARPGGNITTAERAGEGYLWEEGPNSFQPSDPVLTMAVDSGLKDDLVFGDPNAPRFVLWEGKLRPVPSKPGDLPFFDLMSIPGKLRAGLGALGVRAPPPGREESVEDFVRRNLGAEVFERLIEPFCSGVYAGDPSKLSMKAAFGKVWRLEDTGGSIIGGTIKTIQERGKNPKPPRDPRLPTPKGQTVASFRKGLTMLPDAITSRLGSKVKLSWKLTSITKSDNKGYALVYETPEGVVSVQAKTVVMTIPSYVASDILRPLSSDAADALSIFYYPPVAAVTVSYPKEAIRKECLIDGELQGFGQLHPRSQGVETLGTIYSSSLFPNRAPAGRVLLLNIIGGSTNTGIVSKTESELVEAVDRDLRKMLINPKAVDPLVLGVRVWPQAIPQFLIGHLDHLEAAKSALGKGGYDGLFLGGNYVAGVALGRCVEGAYESASQISDYLTKYAYK
modifications: Amino-acid sequence of PPO1 from rice mutant (OsPPO1 Y425I)
OsPPO1
  enzyme activity relative to WT: lower than WT
[1]
  growth of ΔhemG transformant on LB medium containing compound A, compared with the wild type: grew normally

B2: OsPPO1 WT: Amino-acid sequence of PPO1 from wild-type rice (protein)
chain: B1 chain with I425Y
modifications: Amino-acid sequence of PPO1 from wild-type rice (OsPPO1 WT)
Arabidopsis thaliana; different concentrations of compound A
  tolerance to compound A compared with wild-type Arabidopsis thaliana: certain level of tolerance
Arabidopsis thaliana; different concentrations of flumioxazin
  tolerance to flumioxazin compared with wild-type Arabidopsis thaliana: certain level of tolerance
Arabidopsis thaliana; different concentrations of saflufenacil
  tolerance to saflufenacil compared with wild-type Arabidopsis thaliana: certain level of tolerance
[2]; T0 generation rice seedlings, compound A sprayed
  tolerance/resistance to compound A compared with wild-type Huaidao No. 5: certain level of tolerance/resistance
[2]; compound A 135 g/ha and 270 g/ha
  resistance compared with the wild-type control: showed no difference
